Assay: yeast display, Sf9 membrane polyspecificity reagent, FACS + sequencing; frameworks hold sequencing errors
How it was run: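 A nanobody's polyreactivity label depends on the gate it was sorted from. Yeast display cells were stained with 10% biotinylated, detergent-solubilized Sf9 membrane reagent for 1 hour at 4 °C, enriched on streptavidin microbeads and sorted by FACS. The low and high (top ~1%) gates were set on anti-HA fluorescence for expression and streptavidin fluorescence for reagent binding.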

Sequence | polyreactivity (PSR sort gate)
QVQLVESGGGLVQAGGSLRLSCAASGIIFGDKAMGWYRQAPGKERELVAAITIGGTSTYYADSVKGRFTISRDNAKNTVYLQMNRLKPEDTAVYYCAKTILYDCDYWGQGTQVTVSS | low polyreactivity
QVQLVESGGGLVQAGGSLRLSCAASGIIFGDNGMGWYRQAPGKERELVAVITSGDGTNYADSVKGRFTISRDNANNTFYLQMNSLKPEDTAVYYCAADFRIVVYGWGGSHMDYWGKGTQVTVSS | low polyreactivity
QVQLVESGGGLVQAGGSLRLSCAASGIIFGGYAMGWYRQAHGKERELVARITSGGSTNYADSVKGRFTISRDNAKNTVYLQMNSLKPEDTAVYYCNARGGWSWRFYYWGQGTQVTVSS | high polyreactivity
QVQLVESGGGLVQAGGSLRLSCAASGIIFGKNAMGWYRQAPGKERELVAAISRRGGGTYYADSVKGRFTISRDNAKNTVYLQMNSLKPEDTAVYYCAVKVGYVRLLYHYYYWGQGTQVTVSS | high polyreactivity
QVQLVESGGGLVQAGGSLRLSCAASGIIFGPYAMGWYIQAPGKERELVAAITDGGITYYADSVKGRFTISRDNAKNTVYLQMNSLKPEDTAVYYCAAESGYPVYTYVSSGDYWGQGTQVTVSS | low polyreactivity
QVQLVESGGGLVQAGGSLRLSCAASGIIFGRNTMGWYRPAPGKERELVAGISSNGGSTYYADSVKGRFTISRDNAKNTVYLQMNRLKPEDTAVYYCAAYYNIPDRRRVGYDYWGQGTQVTVSS | high polyreactivity
QVQLVESGGGLVQAGGSLRLSCAASGIIFGRYAMGWYRHAPGKERELVAAISTSGCSTYYADSVKGRFTISRDNAKTTVYLQMNSLKPEDTAVYYCAARHREAQRRYDYWGQGTQVTVSS | high polyreactivity
QVQLVESGGGLVQAGGSLRLSCAASGIIFGRYAMGWYRQAPGKERELVAAITRSGGRTYYADSVKGRFTISRDNAKNTVYLQMNSLKPEDTAVYYCAADASGHSYDYWGQGTQVTVSS | high polyreactivity
QVQLVESGGGLVQAGGSLRLSCAASGIIFGRYAMGWYRQAPGKERELVAVINWSGDSTYYADSVKGRFTISRDNAKNTVYLQMNSLKPEDTAVYYCAALNYKGRYRQYYWGQGTQVTVSS | high polyreactivity
QVQLVESGGGLVQAGGSLRLSCAASGIIFGRYAMGWYTPAPGKERELVATISYRGGRTYYADSVKGRFTISRDNAKNTVYLQMNSLKPEDTAVYYCAAPHFSYSGGTHDYWGQGTQVTVSS | high polyreactivity
QVQLVESGGGLVQAGGSLRLSCAASGIIFGRYTMGWYRQAPGKERELVAAITSSGITYYADSVKGRFTISRDNAKNTVYLQMHSLTPEDTAVYYCAADSPVSVTADDGYSGQGTQVTVSS | low polyreactivity
QVQLVESGGGLVQAGGSLRLSCAASGIIFGSNTMGWYRQAPGKERELVAAITSSDGSTHYADSVKGRFTISRDNAKNTVYLQMNTLKPEDTAVYYCAARKVTYGHSYGYDYWGQGTQVTVSS | low polyreactivity
QVQLVESGGGLVQAGGSLRLSCAASGIIFGSYAMGWYRQAPGKERELVAAISTSGGSTYYADSVKGRFTISRDNAKNTVYLQMNSLKPEDTAVYYCNKAGVYRDSSRYNYWGQGTQVTVSS | high polyreactivity
QVQLVESGGGLVQAGGSLRLSCAASGIIFGTNAMGWYRQAPGKERELVAGITSSGDSTYYADSVKGRFTISRDNAKNTVYLQMNSLKPEDTAVYYCARDIRTREFDSWGQGTQVTVSS | low polyreactivity
QVQLVESGGGLVQAGGSLRLSCAASGIIFGTYAMGWYRQAPGKERELVAAIRRSGTGTYYADSVKGRFTISRDNAKNTVYLQMNSLKPEDTAVDYCNVVRSYAYDSWGQGTQVTVSS | high polyreactivity
QVQLVESGGGLVQAGGSLRLSCAASGIIFGWYAMGWYRQAPGKEREFVATISWSGASTYYADSVKGRFTISRDNAKNTVYLQMNSLKPEDTAVYYCAAGGRRQAYGRRDYWGQGTQVTVSS | high polyreactivity
QVQLVESGGGLVQAGGSLRLSCAASGIIFGYNAMGCYRQAPGKERELVASIDVSGGITYYADSVKGRFTISRDNAKNTVYLQMNSLKPEDTAVYYCAAYRYGSRYGYEYWGQGTQVTVSS | high polyreactivity
QVQLVESGGGLVQAGGSLRLSCAASGIIFGYYAMGWSRKAPGKERELVAAISRGGNTNYADSVKGRFTISRDNAKNTVYLQMNSLKPEDTAVYYCAADFWSRIIYFYAVDVDYWGQGTQVTVSS | low polyreactivity
QVQLVESGGGLVQAGGSLRLSCAASGIIFGYYAMGWSRQEPGKERELVAAINQDGSSTYYADSVKGRFTISRDNAKNTVYLQMNSLKPEVTAVYYCNARGVPRQDARMGYWGEGTQVTVSS | low polyreactivity
QVQLVESGGGLVQAGGSLRLSCAASGIIFGYYAMGWYRQAPGKEREFVAAINYSGVSTYYADSVKGRFTISRDNAKNTVYLQMNSLKPEDTAVYSCAADFRIVVYGWGGSHMDYWGQGTQVTVSS | low polyreactivity
QVQLVESGGGLVQAGGSLRLSCAASGIIFGYYTMGWYRQAPGKERELVARITTGSSTNYADSVKGRFTISRDNAKNTVYLQMNSLKPEDTAVYYCAAVPIAADKANGYDYWGQGTQVTVSS | low polyreactivity
QVQLVESGGGLVQAGGSLRLSCAASGIIFHFNDMGWYRQAPGKERELVAAITSGGSTNYADSVKGRFTISRDNAKNTVYLQMNSLKPEDTAVYYCAARRGLRLFAYRHGYWGQGTQVTVSS | low polyreactivity
QVQLVESGGGLVQAGGSLRLSCAASGIIFHFNDMGWYRQAPRKERELVAAIDSTGSTNYADSVKGRFTISRDNAKNTVYLQMNSLKPEDTAVYYCAVLNHRVDSVLTRYYYWGQGTQVTVSS | low polyreactivity
QVQLVESGGGLVQAGGSLRLSCAASGIIFHPYAMGWYRQAPGKERELVAVITWPGDSTYYADSVKGRFTISRDNAKNTVYLQMNSLKPEDTAVYYCNVDAWGTSGELPYDYWGQGSQVTVSS | low polyreactivity
QVQLVESGGGLVQAGGSLRLSCAASGIIFHRNDMGWYRQAPGKERELVANIRDGGITYADSVKGRFTISRDKAKNTVYLQMNSLKPEDTAVYYCARDDTSPGYGDQSSNAAYYYWGQGTQVTVSS | low polyreactivity
QVQLVESGGGLVQAGGSLRLSCAASGIIFHYYAMGWYRQAPVKERELVAVITSGGSTNYADSVKGRFTISRDNAKNTVYLQMNSLKPEDTAVYYCAADPIRDSWWQYFQDGREYDYWGQGTQVTVSS | low polyreactivity
QVQLVESGGGLVQAGGSLRLSCAASGIIFIGNAMGWYRQAPGKERELVAAISRRGGGTYYADSVKGRFTISRDNAKNTVYLQMNSLKPEDTAVYYCNAEITVNDDDYWGQGTQVTVSS | high polyreactivity
QVQLVESGGGLVQAGGSLRLSCAASGIIFIGNAMGWYRQAPGKERELVAAISWNGVRTYYADSVKGRFTISRDNAKNTVYLQMNSLKPEYTAVYYCAAVTRRGIKLDYWGQGTQVTVSS | high polyreactivity
QVQLVESGGGLVQAGGSLRLSCAASGIIFIHNAMGGYRQAPGTERELVAAINWSGGRTSYADSVKGRFTISRDNAKNTVYLQMTRLKPEDTAVYYCAADGRRYSGEYYYWGQGTQVTVSS | high polyreactivity
QVQLVESGGGLVQAGGSLRLSCAASGIIFINYVKGWYRQAPGKESELVAAITGSGSSTYYADSVKGRFTISRDNAKNTVYLQMNSLKPEDTAVYYCAADNPRVRFLYYYWGQGTQVTVSS | high polyreactivity
